Results reported in the supplement of paper PMC9732359.
± gives the uncertainty stated by the source.

Experiment: protein stability index of a GFP-peptide fusion (yeast GPS) (PSI 1-4); higher = more stable; sorted into four equal gates, so the index is relative within each strain
How it was run: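 Each library plasmid carries Cherry plus GFP with a tiled 17-residue yeast protein peptide fused downstream, and the pooled library was carried in yeast. Mid-log cultures in leucine-free medium were sorted into four equal gates by GFP/Cherry ratio. Reads from Illumina sequencing of PCR-amplified plasmids from each gate were assigned to strains by barcodes. Per peptide, the protein stability index was computed as the summed products of gate read frequency and gate number.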

Sequence | protein stability index (doa10∆) | protein stability index (pdr5∆) | protein stability index (san1∆) | protein stability index (ubr1∆)
QSESRQKRQLHDISKTE [SNU114] | 3 ± 0.096 | 2.87 ± 0.071 | 3.13 ± 0.073 | 3.04 ± 0.046
NFNASLQLTTNTEQGDS [SNM1] | 2.02 ± 0.039 | 2.3 ± 0.064 | 2.49 ± 0.055 | 1.85 ± 0.071
IKHKHKKVKLAVLSYYK [RPS31] | 2.23 ± 0.047 | 2.59 ± 0.074 | 2.37 ± 0.073 | 2.25 ± 0.048
YELEFDTPTSGKHNLTI [BRR2] | 3.1 ± 0.068 | 3.04 ± 0.076 | 3.18 ± 0.061 | 3.23 ± 0.065
RGHRIRREFKQYSLERN [PRP8] | 2.44 ± 0.17 | 2.61 ± 0.094 | 2.81 ± 0.23 | 1.97 ± 0.12
LSSGENRYAFSQPTNST [SMC4] | 3.22 ± 0.14 | 2.96 ± 0.11 | – | 2.85 ± 0.11
PGPLPDTDSKPSSQSQN [YLR018C/POM34] | 3.06 ± 0.079 | 3.15 ± 0.061 | 3.17 ± 0.063 | 2.98 ± 0.061
LLQSSIINKLIHIQSKE [POP3] | 2.49 ± 0.069 | 2.5 ± 0.044 | 1.91 ± 0.058 | 2.28 ± 0.048
AHRGIRHFWGLRVRGQH [RPS18A] | 2.82 ± 0.1 | 2.73 ± 0.083 | 2.44 ± 0.081 | 2.66 ± 0.053
RLGLIPLQSMDIEQLEY [RPB3] | 2.75 ± 0.067 | 2.92 ± 0.063 | 2.91 ± 0.088 | 2.72 ± 0.083
RSISWAPSIGRWYQLIA [YGL100W/SEH1] | 1.26 ± 0.072 | 1.15 ± 0.075 | 1.16 ± 0.12 | 1.11 ± 0.063
APLVLLSALDHYERTQT [RPN8] | 2.45 ± 0.051 | 2.45 ± 0.053 | 2.39 ± 0.057 | 2.42 ± 0.039
PKNQQYRAFGSIWQVKD [MED7] | 2.45 ± 0.084 | 2.7 ± 0.082 | 2.54 ± 0.08 | 2.64 ± 0.063
QIYTQRAYMRPLGVILT [SCL1] | 1.8 ± 0.053 | 1.38 ± 0.06 | 1.43 ± 0.12 | 1.64 ± 0.036
KILPTDIQLKNLFPLKP [SRP68] | 2.41 ± 0.059 | 2.63 ± 0.046 | 2.55 ± 0.043 | 2.53 ± 0.059
TKSKEQLASQLVDLKKE [RPL35A] | – | – | 3.12 ± 0.098 | 3.2 ± 0.17
REKRDRTHFKRMRFPPF [PRP8] | 2.27 ± 0.05 | 2.64 ± 0.069 | 2.22 ± 0.098 | 2.2 ± 0.047
IEEEIFDDSSRIVNHKT [LIN1] | 3.14 ± 0.083 | 2.91 ± 0.1 | 3.11 ± 0.072 | 2.97 ± 0.071
FSWISVVNDLVGEKLVV [SIR3] | 3.42 ± 0.13 | 2.58 ± 0.14 | 3.26 ± 0.072 | 2.84 ± 0.14
GETMWVPIKSSKSGRIF [RPN13] | 2.3 ± 0.11 | 2.6 ± 0.15 | 2.81 ± 0.068 | –
KVWLDPNETSEIAQANS [RPL19A] | 3.16 ± 0.23 | 3.69 ± 0.24 | – | 3.04 ± 0.29
SNEEQRNLDSATLKEIK [SMC3] | 3.5 ± 0.14 | 3.21 ± 0.13 | 3.46 ± 0.084 | 3.48 ± 0.16
QESFVPNSERSGTPTLK [YOR098C/NUP1] | 3.03 ± 0.16 | 2.25 ± 0.15 | – | 1.79 ± 0.19
QARTATLKYICAECSSK [RPC10] | 2.72 ± 0.12 | 2.98 ± 0.1 | 2.84 ± 0.065 | 2.79 ± 0.073
NTHLGARNVQVHQEPYV [RPS0A] | 2.06 ± 0.087 | 2.25 ± 0.053 | 2.59 ± 0.09 | 2.11 ± 0.058

Sequence | protein stability index (doa10∆) | protein stability index (pdr5∆) | protein stability index (san1∆) | protein stability index (ubr1∆)
TPVSHNDDLYGKVTDVR [RPL1A] | 3.04 ± 0.091 | 3.04 ± 0.096 | 2.81 ± 0.067 | 3.12 ± 0.084
DANLLGAEVLIKGSKLS [COR1] | 2.94 ± 0.072 | 2.85 ± 0.079 | 2.63 ± 0.12 | 2.63 ± 0.042
TAGAAANALGGLGVNRR [SSN3] | 3.51 ± 0.11 | 3.04 ± 0.11 | 3.38 ± 0.089 | 3.24 ± 0.1
SDIISMLQISDDNEMTR [RRI2] | 3.05 ± 0.096 | 3.24 ± 0.1 | 3.2 ± 0.045 | 2.87 ± 0.1
WLKNKFAEENITHKLTK [BRR2] | 3.13 ± 0.085 | 3.03 ± 0.06 | 2.85 ± 0.047 | 3.01 ± 0.078
KDTPFTIYDGEAVAKYI [PRE5] | 2.69 ± 0.073 | 2.97 ± 0.062 | 3.13 ± 0.089 | 3.12 ± 0.05
KDLQWLEFARITPMNDD [SIN4] | 2.94 ± 0.1 | 3.19 ± 0.088 | 3.14 ± 0.055 | 3.33 ± 0.097
DSILNYAKSEFDNVASV [ECM29] | 3.22 ± 0.11 | 3.14 ± 0.15 | 3.04 ± 0.087 | 3.15 ± 0.18
AAIHAKRVTIQKKDIKL [HHT1] | 2.92 ± 0.086 | 3.04 ± 0.12 | 3.14 ± 0.091 | 3.1 ± 0.075
ISSLGYRSHIFATNEER [SWI3] | 2.3 ± 0.072 | 1.96 ± 0.056 | 2.34 ± 0.055 | 2.33 ± 0.045
QGFSKDTFELIKTFLVD [YDL116W/NUP84] | 3.02 ± 0.079 | 3.26 ± 0.063 | 2.75 ± 0.062 | 3.25 ± 0.043
KKYTQNNPLLLIVDVKQ [RPN8] | 1.4 ± 0.068 | 1.31 ± 0.046 | 1.06 ± 0.14 | 1.16 ± 0.048
KLTQKLVTAGVAAAGIT [CYT1] | 2.1 ± 0.083 | 2.21 ± 0.086 | 2.56 ± 0.065 | 2.11 ± 0.052
NKNGENKKIGKRPPEIM [SIR4] | 3.09 ± 0.12 | 3.21 ± 0.11 | 3.28 ± 0.14 | 3.28 ± 0.091
HLAICLDIINPGSVEEV [YDL116W/NUP84] | 2.66 ± 0.098 | 2.77 ± 0.089 | 2.46 ± 0.13 | 3.45 ± 0.088
RSILQSLNPALQEKIST [SWI1] | 2.45 ± 0.056 | 2.79 ± 0.069 | 2.72 ± 0.1 | 2.71 ± 0.073
IKRTDEGGEAEFIFGTY [ARP7] | 3.35 ± 0.093 | 3.3 ± 0.11 | 3.37 ± 0.056 | 3.36 ± 0.045
IGNLITRQFEGRSNEIV [PRP8] | 3.05 ± 0.075 | 3.29 ± 0.087 | 3 ± 0.058 | 2.7 ± 0.074
QKEQNVNNRDSEKGFSK [YCS4] | 2.91 ± 0.071 | 3.11 ± 0.063 | 2.41 ± 0.061 | 2.97 ± 0.036
DNVDDIGEFNVSMYQNS [YDL088C/ASM4] | 3.41 ± 0.23 | 3.05 ± 0.28 | 2.94 ± 0.22 | 3.19 ± 0.23
GKTGLSNMILGSVELST [YML103C/NUP188] | 2.24 ± 0.056 | 2.57 ± 0.086 | 2.34 ± 0.069 | 2.33 ± 0.042
LLNRIPRMYHIGLRQFQ [POP1] | 2.09 ± 0.099 | 1.51 ± 0.077 | 1.72 ± 0.18 | 1.3 ± 0.11
SFLKVDPDLGLDLMFDE [YJL039C/NUP192] | 3.3 ± 0.083 | 3.3 ± 0.09 | 3.04 ± 0.087 | 3.06 ± 0.091
HVESDKITAKTQHEEEE [IRR1] | 2.85 ± 0.064 | 2.96 ± 0.088 | 3.09 ± 0.092 | 2.81 ± 0.11
ADVLVDRVVSSDSLDIA [SRP72] | 1.95 ± 0.056 | 1.58 ± 0.072 | 1.42 ± 0.12 | 1.81 ± 0.081
